Values of other authors in patent publication US8232228B2 (priority 2002, dated 2012).

B1: HarpinEa: Hypersensitive response elicitor protein from Erwinia amylovora, amino acid sequence SEQ. ID. No. 3 (protein)
chain: MSLNTSGLGASTMQISIGGAGGNNGLLGTSRQNAGLGGNSALGLGGGNQNDTVNQLAGLLTGMMMMMSMMGGGGLMGGGLGGGLGNGLGGSGGLGEGLSNALNDMLGGSLNTLGSKGGNNTTSTTNSPLDQALGINSTSQNDDSTSGTDSTSDSSDPMQQLLKMFSEIMQSLFGDGQDGTQGSSSGGKQPTEGEQNAYKKGVTDALSGLMGNGLSQLLGNGGLGGGQGGNAGTGLDGSSLGGKGLQNLSGPVDYQQLGNAVGTGIGMKAGIQALNDIGTHRHSSTRSFVNKGDRAMAKEIGQFMDQYPEVFGKPQYQKGPGQEVKTDDKSWAKALSKPDDDGMTPASMEQFNKAKGMIKRPMAGDTGNGNLQARGAGGSSLGIDAMMAGDAINNMALGKLGAA
modifications: Erwinia amylovora - harpinEa
heat stable at 100° C.: at least 10 minutes
